B1: Car10: carbonic anhydrase 10, rodent ortholog, overexpressed (V5-tagged) protein (protein)
chain: MEIVWEVLFLLQANFIVCISAQQNSPKIHEGWWAYKEVVQGSFVPVPSFWGLVNSAWNLCSVGKRQSPVNIETSHMIFDPFLTPLRINTGGRKVSGTMYNTGRHVSLRLDKEHLVNISGGPMTYSHRLEEIRLHFGSEDSQGSEHLLNGQAFSGEVQLIHYNHELYTNVTEAAKSPNGLVVVSIFIKVSDSSNPFLNRMLNRDTITRITYKNDAYLLQGLNIEELYPETSSFITYDGSMTIPPCYETASWIIMNKPVYITRMQMHSLRLLSQNQPSQIFLSMSDNFRPVQPLNNRCIRTNINFSLQGKDCPNNRAQKLQYRVNEWLLK
modifications: left off: small tags and cut ends
notes: carbonic anhydrase 10, rodent ortholog, overexpressed (V5-tagged) protein
B2: CA10: human carbonic anhydrase 10, overexpressed (V5-tagged) protein; SEQ ID NO: 9 (protein)
chain: B1 chain
modifications: V5 tag

Columns and labels:
[1] = system: neuropathic (Chung) mouse pain model; experiment: neuropathic (Chung, spinal nerve ligation) mouse pain model, mechanical withdrawal threshold (von Frey); format: in vivo, C57BL/6J mice; conditions: sciatic nerve injection; spinal nerve ligation on Day 19
Description: Sciatic nerve injection of expression vectors (adeno-associated AAV8-V5-Car10 and AAV8-V5-CA10 vectors): Mice were anesthetized by intraperitoneal injection of Ketamine, xylazine and acepromazine cocktail (VEDCO, Saint Joseph, MO). Following sciatic nerve exposure, about 1.5 μl viral particles of AAV8-null (1.36E^13 viral particles, SL100832 SignaGen Laboratories Rockville, MD), AAV8-V5-Car10 and AAV8-V5-CA10 (1.06E^14 viral particles and 1.66E^14 viral particles, respectively) were injected into the sciatic nerve using a 35-gauge Nanofil needle (World Precision Instruments, Sarasota, FL). The sciatic injection site was approximately 45 mm from the tip of the third toe.
Neuropathic pain model: For the induction of peripheral neuropathy, mice were first anesthetized by an intraperitoneal injection of ketamine, xylazine hydrochloride and acepromazine (VEDCO, Saint Joseph, MO). […]
Behavioral tests: Thermal and mechanical sensitivity was measured by Hargreaves test and von Frey filament threshold calculations respectively. […] The mouse hind paw was pressed with one of a series of von Frey filaments with logarithmically incrementing stiffness (Stoelting Co, Wood Dale, IL) presented perpendicular to the plantar surface of each hind paw for 1-2 seconds, the 50% threshold was determined using the Up- and Down method.

[2] = system: intracellular calcium release in NBL cells; experiment: ATP-stimulated calcium release in NBL cells (Fura2 imaging); format: cell-based, human; conditions: 1 μM ATP, vs empty vector
Description: Pharmacodynamics—Bioassay of Calcium Release: Fifteen mm glass coverslips (cat #72228 Electron Microscopy Sciences, Hatfield, PA) were coated with poly-D-Lysine (Sigma) followed by Laminin and 1×10^5 cells were seeded on each coverslip. Twenty-four hrs later, cells were transfected with AAV2-ITR, AAV2-V5-Car10, or AAV2-V5-CA10 vectors as previously described. In embodiments wherein AAV2 is not employed, other expression vectors (including viral vectors) are used. Fura-2AM (cat #F1221 ThermoFisher scientific, Waltham, MA) was dissolved in DMSO (50 μg in 50 μl) and 1% pluronic acid-127 (cat #P2443 Sigma, St Louis, MO) as the stock solution. Forty eight hrs after seeding, cells were loaded with 2 μM Fura-2AM dye for 45 min at room temperature in the dark in a standard Ca+2 buffer solution containing: 125 mM NaCl, 2 mM MgCl, 4.5 mM KCl, 10 glucose, 20 mM HEPES, 2 mM CaCl2, pH 7.4.25. Following dye loading, coverslips were washed with Ca^+2 buffer solution. […] Regions of interest over the field of view were selected and the mean pixels intensity at each frame was measured. Data was plotted as ratio fluorescence intensity versus time and subsequently converted to a relative scale. […]

Row | Molecule | mechanical withdrawal threshold [1] | ATP-stimulated calcium release [2]
1 | B1 | prevents mechanical hyperalgesia | –
2 | B2 | prevents mechanical hyperalgesia | inhibited

From patent US11911450B2, “Method for managing pain” (UNIVERSITY OF MIAMI, priority 2017, dated 2024)
